# Residue numbers refer to the chain shown, from its start. Numbers in names are those of the source. Where “and” joins values, the source holds several entries; their conditions need not be identical. Identical values can stand only once.
# B1: serum CTRP5 (natural protein, mouse (endogenous in C57BL/6 serum), UniProt Q8K479 16-243, looked up)
# chain: SPPLDDNKIPSLCPGQPGLPGTPGHHGSQGLPGRDGRDGRDGAPGAPGEKGEGGRPGLPGPRGEPGPRGEAGPMGAIGPAGECSVPPRSAFSAKRSESRVPPPADTPLPFDRVLLNEQGHYDPTTGKFTCQVPGVYYFAVHATVYRASLQFDLVKNGQSIASFFQYFGGWPKPASLSGGAMVRLEPEDQVWVQVGVGDYIGIYASIKTDSTFSGFLVYSDWHSSPVFA
# B2: adiponectin, C-terminal FLAG- or HA-tagged, full length (natural protein, UniProt Q60994 18-247, looked up)
# chain: EDDVTTTEELAPALVPPPKGTCAGWMAGIPGHPGHNGTPGRDGRDGTPGEKGEKGDAGLLGPKGETGDVGMTGAEGPRGFPGTPGRKGEPGEAAYVYRSAFSVGLETRVTVPNVPIRFTKIFYNQQNHYDGSTGKFYCNIPGLYYFSYHITVYMKDVKVSLFKKDKAVLFTYDQYQEKNVDQASGSVLLHLEVGDQVWLQVYGDGDHNGLYADNVNDSTFTGFLLYHDTN
# B3: CTRP1ΔCys (C73A/C76A/C77A/C141A), C-terminal FLAG-tagged (natural protein, mouse, UniProt Q9QXP7 26-281, looked up)
# chain: LVPRVQEEQQEWEETEELPSPLDPVTRPEETREKYSPRQGEDLPTSRAYRAADPSTPVYQTIPPPQINITILKGEKGDRGDRGLQGKYGKIGSTGPRGHVGPKGQKGSIGAPGNHAKSQYAAFSVGRKKALHSNDYFQPVVFDTEFVNLYKHFNMFTGKFYCYVPGIYFFSLNVHTWNQKETYLHIMKNEEEVVILYAQVSDRSIMQSQSLMMELREEDEVWVRLFKGERENAIFSDEFDTYITFSGYLVKPASEP
# B4: CTRP1 (C1q/TNF-related protein 1), C-terminal FLAG- or HA-tagged, full length (natural protein, mouse, UniProt Q9QXP7 26-281, looked up)
# chain: B3 chain with A48C, A51C, A52C, A116C
# modifications: N-linked glycans (site not given)
# B5: CTRP3ΔCys (C39A/C42A/C43A), C-terminal FLAG-tagged (natural protein, UniProt Q9ES30 23-246, looked up)
# chain: QDEYMESPQAGGLPPDASKAAHGDYGFRGYQGPPGPPGPPGIPGNHGNNGNNGATGHEGAKGEKGDKGDLGPRGERGQHGPKGEKGYPGVPPELQIAFMASLATHFSNQNSGIIFSSVETNIGNFFDVMTGRFGAPVSGVYFFTFSMMKHEDVEEVYVYLMHNGNTVFSMYSYETKGKSDTSSNHAVLKLAKGDEVWLRMGNGALHGDHQRFSTFAGFLLFETK
# B6: CTRP3 (C1q/TNF-related protein 3), C-terminal FLAG- or HA-tagged, full length (natural protein, UniProt Q9ES30 23-246, looked up)
# chain: B5 chain with A17C, A20C, A21C
# modifications: carbohydrate moieties (type and sites not determined; none N-linked)
# B7: CTRP10 (C1q/TNF-related protein 10), C-terminal FLAG- or HA-tagged, full length (natural protein, mouse, UniProt Q8CFR0 22-287, looked up)
# chain: HYEMLGTCRMICDPYSVAPAGGPAGAKAPPPGPSTAALEVMQDLSANPPPPFIQGPKGDPGRPGKPGPRGPPGEPGPPGPRGPPGEKGDSGRPGLPGLQLTTSAAGGVGVVSGGTGGGGDTEGEVTSALSAAFSGPKIAFYVGLKSPHEGYEVLKFDDVVTNLGNHYDPTTGKFSCQVRGIYFFTYHILMRGGDGTSMWADLCKNGQVRASAIAQDADQNYDYASNSVVLHLDSGDEVYVKLDGGKAHGGNNNKYSTFSGFLLYPD
# modifications: carbohydrate moieties (type and sites not determined; none N-linked)
# B8: CTRP10ΔCys (C29A/C33A), C-terminal FLAG-tagged (natural protein, mouse, UniProt Q8CFR0 22-287, looked up)
# chain: B7 chain with C8A, C12A
# B9: CTRP5ΔCys (C28A/C98A), C-terminal FLAG-tagged (natural protein, UniProt Q8K479 16-243, looked up)
# chain: B1 chain with C13A, C83A
# B10: CTRP5 (C1q/TNF-related protein 5), C-terminal FLAG- or HA-tagged, full length (natural protein, UniProt Q8K479 16-243, looked up)
# chain: B1 chain
# modifications: carbohydrate moieties (type and sites not determined; none N-linked)
# B11: CTRP6 (C1q/TNF-related protein 6), C-terminal FLAG- or HA-tagged, full length (natural protein, UniProt Q6IR41 25-264, looked up)
# chain: VPTEETTFGESVASHLPKGCRRCCDPEDLMSSDDTVQAPVSPYVLPEVRPYINITILKGDKGDRGPTGTPGKPGKNGTRGDRGSQGVKGDKGQAGSPGSSCQTHYSAFSVGRKTGLHSSENFLSLLFDRVFVNTDGHFDMATGSFVAPLRGLYFFSLNVHSWNYKETYVHIVHNEQAVVILYAQPSERSIMQSQSVMLPLVPGDRVWVRLFKRERENGIYSDDVDTYITFSGHLIKAEDN
# modifications: N-linked glycans (sites not given)
# B12: CTRP6ΔCys (C44A/C47A/C48A/C125A), C-terminal FLAG- or HA-tagged (natural protein, UniProt Q6IR41 25-264, looked up)
# chain: B11 chain with C20A, C23A, C24A, C101A
# Molecular target: the molecule itself
# Test: SEC
row,Protein,stoichiometry N
1,B1,3

# Molecular target: the molecule itself
# Test: SEC
# Remark: another data set of the same source
row,Protein,stoichiometry N
1,B2,3 and 6
2,B3,3
3,B4,3
4,B5,3
5,B6,3 and ~6
6,B7,3 and ~6
7,B8,3
8,B9,3
9,B10,3 and ~6
10,B11,~6 and 3
11,B12,3
